Laboratory results published in the supplement of paper PMC12042874.
± gives the uncertainty stated by the source.

Experiment: amyloid nucleation score (Sup35N fusion, yeast selection) (log enrichment); library NNK2; higher = more nucleation; inactive = no reads after selection
How it was run: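 Yeast lacking psi expressed peptides of 20 random codons fused to Sup35N, received 100 μM copper sulfate for 24 hours, and were then grown for 7 days at 30°C on medium lacking adenine and uracil. Illumina sequencing of input and output plasmid inserts provided the reads. Nucleation scores are DiMSum log enrichments of output over input, centred on the mode of non-aggregating sequences. Any sequence with under 100 input reads was excluded.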

Substance | amyloid nucleation score
TLCRGTVLVAFGSPNITPSK | 3.89 ± 0.059
TLCTVSHLNDSLLIFIRFVV | inactive
TLFSYEYVYKFMGPRFKGAG | -0.746 ± 0.54
TLGTFVWVFRSFTCLLLEEQ | 3.29 ± 0.057
TLGTLRQ | 1.59 ± 0.23
TLGYKFWMGRYRVNSAYGFE | -0.005 ± 0.61
TLMCFYYFEQ | 9.395 ± 0.053
TLMQSYVQFWYTLYSHNNWL | -0.698 ± 0.24
TLPRSII | -0.113 ± 1.1
TLPVPPGCRFVEITV | 0.293 ± 0.53
TLRTFRRAQGTRYVYLK | 0.121 ± 0.23
TLSKVFRVRPGSMTTHCYIV | inactive
TLTSSCVNFINMLHEIFRYS | -0.623 ± 1
TLVSWYSTTEPAC | -1.13 ± 0.78
TLWYRLFLVSISVFPKFVTE | -0.451 ± 1.1
TLYWNKSQRYGLLWFKFVSL | -0.277 ± 1
TMMSLSGIVL | -0.376 ± 0.48
TMSFFLGSLEVL | -1.09 ± 0.48
TMYFILLCMLLRGFSSGPPP | -1.04 ± 0.78
TNCHLFVSFFLCVDVYTVVC | 4.72 ± 0.063
TNDVTSWKLTHCYLWPKADF | -0.328 ± 0.32
TNHYSSVRS | -0.195 ± 0.54
TPSFLLMICRNMVLGCG | 0.472 ± 0.8
TQSWDEWSYGNITGSTSYRL | 0.25 ± 0.23
TQSWVAISLVRHRSWGSWLG | 3.57 ± 0.07

Substance | amyloid nucleation score
TRDSLGRKGYRSAVLTPSMP | 1.29 ± 0.14
TRETHLGNAFA | 0.674 ± 0.53
TRFCCVATHFDYNLIIFYYP | 0.554 ± 0.23
TRGITCRLAYLQSLVNE | 0.383 ± 0.43
TRGIVGFPD | 3.93 ± 0.067
TRIRWWF | 4.21 ± 0.067
TRLLIVDFNIFSIEIVHLMS | 2.41 ± 0.071
TRMHESIWV | 1.73 ± 0.077
TRNAFNCTENISTLPTARYL | -0.399 ± 0.46
TRSHLFGYSVMGSSLIDSLY | -1.24 ± 0.79
TRSMSSAPADCVASGT | -0.512 ± 0.76
TRVAYRI | 0.219 ± 1
TRYHLHSALT | -0.12 ± 1
TSDPEFV | -0.627 ± 0.49
TSHRWAMGSRYEVHIAVGMF | 1.13 ± 0.26
TSISLLFWCVYSLASVGFSA | -0.586 ± 1.1
TSLMRYIPMGHLKAWIFLSI | 0.049 ± 1.1
TSNLFHLYGACRRYMGRCSA | 0.434 ± 0.66
TSNNVCCARHPI | 1.37 ± 0.29
TSQLSFYKHSLVY | inactive
TSSFIRLNYSNALLNKFWSN | -1.99 ± 0.75
TSTCNRRVIWMHLEPGELCV | -0.375 ± 0.76
TSVASGRNGNSPVHNALAWG | 0.2 ± 0.35
TSVYFHFGFPPWVGVPRRLT | 3.17 ± 0.077
TSYIVDTSSLFITRASTG | 0.336 ± 0.44

Substance | amyloid nucleation score
TSYYLDL | -1.31 ± 0.75
TTDSGAVYSGLPE | 0.542 ± 0.19
TTICVFNVGESHMRLSGSVG | -0.053 ± 0.28
TTILEL | -0.305 ± 0.79
TTRYANWNMNINLGL | 6.613 ± 0.046
TVALNSWARHGEML | -0.375 ± 1.1
TVCWEWSSLWDTPSLKSAD | 0.536 ± 0.37
TVFFIFHLLVYLPMFTRALD | 8.55 ± 0.043
TVIGLLIIVVGSYDVCSNVW | 6.163 ± 0.041
TVILV | inactive
TVLLGHLEGRVYWEPMIQQV | 0.36 ± 0.64
TVPGNEEV | 0.028 ± 0.53
TVPTMVW | -0.124 ± 0.29
TVRASCFRVSVRKEKKIVVA | 0.233 ± 0.77
TVRRTRFLNNISFNGFNVFV | 7.383 ± 0.054
TVSHDTGFGRNFFHVLLLS | -0.012 ± 1.1
TVSSIKFVVYSGLRWYELVY | 2.27 ± 0.1
TVTVDIFSKEWTGGTNFCDI | -0.179 ± 0.76
TVWGQECYW | 5.74 ± 0.077
TVWVIVERYMGFLYFLYNTS | inactive
TWCMRMNCSAFRKGVVNYSR | 2.91 ± 0.078
TWIGYHFGI | inactive
TWLIRPKWVSVQVIRMLPMV | 1.11 ± 0.41
TWRHSPCLVRTEFERKLTRL | 0.039 ± 0.49
TYAYYH | 5.61 ± 0.061

Substance | amyloid nucleation score
TYEIFLVPS | 0.41 ± 0.74
TYFVLYVCED | 0.311 ± 0.23
TYGTTELVLHRTEINMMRNQ | 3.25 ± 0.12
TYIFLSRIGQFSKLQYVMRL | 5.37 ± 0.056
TYLDGAYLLFDSARFAKAVK | 0.144 ± 0.24
TYLLLWSCGWLSWRVICALR | 4.66 ± 0.089
TYQFMHVRLFRPMTSFIVYG | 0.36 ± 0.56
TYVSKIWMKRCESDILRKVI | inactive
TYYFVVQFI | 8.284 ± 0.036
VAFIFRSSWKSIPKTPKMYS | inactive
VAKLLMAGVVKPCRGGRCVG | 0.936 ± 0.16
VAPTLYLVCRIIRPNPNSYY | -0.228 ± 0.53
VARHIHLTRSRNNFSSGRKA | 0.958 ± 0.4
VASRFDSSYMCKMAFI | -0.651 ± 0.54
VATGLRAWWWTGKEEVGLVS | 1.69 ± 0.24
VAYYEDVLSSYFIERW | -0.392 ± 0.29
VCDFNVLDGCGNPGLL | -0.67 ± 1.1
VCFLQFYLSIFTTHTVSTYK | -0.547 ± 0.76
VCNFSTLELVVEDGSKAYRG | -0.079 ± 0.3
VCQRPEMVLNSIETLQPRWS | 0.211 ± 0.21
VCRHFVRVKDQMDRTFNDKQ | 0.18 ± 0.28
VCVLKGDGGL | 0.339 ± 0.55
VCWYG | 0.034 ± 0.3
VCYYMWWFVYKHRSWQSGSW | -0.639 ± 0.74
VDAVLND | 0.432 ± 0.29

Substance | amyloid nucleation score
VDEQSLNR | 0.62 ± 0.41
VDILGMGRNHM | -1.04 ± 0.78
VDLGLLKKTNFTQLYFGDC | 0.317 ± 0.16
VDLRQCENLHRPWRFRRSGK | 1.4 ± 0.2
VDRDSPKYVHA | 0.917 ± 0.32
VDRNVTSRSQVTSSFSWDIV | inactive
VDSRGFHYDL | inactive
VDVLLFRDYLNYSNLITHKV | -1.21 ± 0.54
VDYLRYLIWFNRS | 0.058 ± 0.79
VEFSLSCHNMIFYVLD | 6.762 ± 0.028
VEMAFRFQRSKSCLSLDDFV | inactive
VENLRNTIPKKEIGFSSVTG | -0.105 ± 0.3
VERFLPVCFIPLISKRWTMY | 0.283 ± 0.54
VERIKLFASAHYS | -0.203 ± 0.35
VERLYDAYQIF | 0.316 ± 0.4
VESIKGVSCLYMFSYVMLLQ | -0.021 ± 0.37
VFCINAFRALQTYCCWMYF | 1.91 ± 0.087
VFDGRYVESILSFF | 3.96 ± 0.1
VFELFAMCSVSKCCGVSSVT | 1.46 ± 0.4
VFFGVQNKR | 3.04 ± 0.095
VFFGVSNVVSATYSYWLRIQ | -0.627 ± 0.76
VFGACGTM | 0.606 ± 0.32
VFILSEYVTNAVK | -0.165 ± 0.54
VFILWFTVSATIKKESFGNN | -2.34 ± 1.1
VFMTSLY | -1.06 ± 0.49

Substance | amyloid nucleation score
VFNWVRISPR | 8.81 ± 0.07
VFPDSIGN | inactive
VFQSDECVFLCSN | -0.561 ± 0.55
VFSNDASDNTRGRWLGYGFF | inactive
VFSYRLLSNPLSVPW | 4.83 ± 0.089
VFTFVKERQSTWVVSFPQFL | 4.68 ± 0.066
VFVIWCFVIICVSLLSVVDR | -0.795 ± 0.49
VFYLSFIFLLWLSGKYLGHW | 1.25 ± 0.1
VGAMSIMKVLNFHDDILTVT | inactive
VGDRSFVMFSIFESAGSCCT | 1.03 ± 0.25
VGDSMMWVTDRAKGVPYGGD | 0.285 ± 0.65
VGEKCDL | -0.023 ± 0.55
VGFISTMWHMYSELLGQINV | -0.499 ± 0.76
VGIYMIWLISSS | inactive
VGKVFLIPGSFYEIRLMTYF | 1.62 ± 0.13
VGLSPSSASTHLRN | 1.07 ± 0.33
VGRCTINFIRLRDWVRLRQN | -0.082 ± 0.6
VGRVNIVSDLMVPNSHYICS | -0.056 ± 0.76
VGSNKGAIIGLMIVGGVVIA | 3.11 ± 0.16
VGSVICMFMCWFA | 4.75 ± 0.036
VGWHPPVLTEYTMDQTAYTT | 1.39 ± 0.29
VHLGRV | -0.678 ± 0.48
VHLPCGYLKFRGLMYWRREL | 0.479 ± 0.34
VHLSKDLCYLLSGYGYFPCF | -0.216 ± 0.36
VHQFADFNKIMNGLDDLLLK | 2.65 ± 0.081

Substance | amyloid nucleation score
VIAFYVAFFNRTRVSYRSLW | 4.22 ± 0.06
VICGLTPDRDAHMYLTIFWL | 0.578 ± 0.81
VIEYRVFRKYPCNCFLRGLS | -0.865 ± 0.39
VIFLVDNCCMACDSLEPRTI | 0.513 ± 0.25
VIGASRRVWHRLKHKA | 0.994 ± 0.34
VIHMVPMTEGGLPCTV | -0.139 ± 0.56
VIHSPQMLSWSSHGNARFSK | 0.628 ± 0.33
VIKCLVPSLIKSFRRHWFNT | -0.708 ± 0.79
VIKMVMEVPVTGFPRSRNSF | -0.369 ± 1.1
VILGVGKTTNFYSSFFIRVW | inactive
VIMVTSPQFKKPKLYMDKRD | -1.03 ± 0.54
VINSMY | 1.11 ± 0.45
VINTEVCIEGGRQVRPAPRL | 1 ± 0.41
VISKVSLDVCRCIRFLHYDS | 7.692 ± 0.061
VISQRLFS | -0.155 ± 0.74
VIVVRNQRKFVTSDLPLKVC | 1.04 ± 0.35
VIYLHVYGCVNLVSVLVHSL | 1.87 ± 0.12
VKALNH | 0.66 ± 0.33
VKAVMWIDLVNRVIMNGHIS | -0.461 ± 0.49
VKCLGAFGDE | -0.012 ± 1.1
VKINSTDMSMVQNCNYLIWV | -0.531 ± 1.1
VKNCDWGIYIILSGFMRVTR | -1.27 ± 1.1
VKPVFWKLGWRDYLYSMRQF | -1.11 ± 0.3
